Results published in patent publication US20250296984A1, “THERAPEUTIC AND DIAGNOSTIC AGENTS AND USES THEREOF” (priority 2022, published 2025).
Marks after values point to notes of the source that are not given here.

Columns and labels:
[1] = system: control CHO cells (US28 negative); experiment: FACS binding to US28 negative control CHO cells; design: species or system Chinese hamster
Description: (§1) Flowcytometry was used to analyze cell surface binding by the US28 antibodies. Upon cell harvest, adherent non-infected and US28 overexpressing or HCMV infected cells were washed three times with cell staining buffer (phosphate-buffered saline (PBS (Amresco, Cleveland, 44139, USA) added 0.5% BSA and 0.05% Sodium Azide (NaN3)). The cells were trypisinized and then resuspended in DMEM with 10% FBS to inhibit the action of trypsin. The cells were then pelleted at 400×g for 10 minutes and washed three times in cell staining buffer. Cell viability and cell concentration were measured by tryphan blue viability assay and a cell counter (Countess, Invitrogen, Carlsbad, CA 92008, USA). The cell suspension was adjusted to 1×10^6 cells/mL with ice-cold cell staining buffer. The cells were blocked in 1 ml 10% FBS or 1% BSA in PBS per 1×10^6 cells, vortexed briefly, and incubated for 10-30 minutes to eliminate non-specific staining. The cells were then stained with the respective antibodies and appropriate negative controls.
(§2) In both cases (ECD1 and ECD3), the antibodies were added to the cells, vortexed and incubated on ice for 15 to 30 minutes up to overnight and washed twice with cell staining buffer to remove any unbound antibodies. In addition, the CMV Immediate Early Antigen (IE) Alexa488 Ab, MAB810X, 1:50 was included to verify HCMV infected cells in one of the experiments. Because it binds to an intracellular, HCMV encoded protein, it was added after permeabilizing the cells in 70% ethanol for 30 min on ice.
(§3) 1:500-1:5000 in cell staining buffer of the appropriate fluorescent-conjugated appropriate secondary antibodies were added and incubated on ice for 15-20 min in the dark. The cells were washed three times to remove any unbound antibodies. The cells were then fixed with 0.5% paraformaldehyde (PFA) for 30 min on ice and resuspended in 200-500 μL cell staining buffer for final flow cytometric analysis using an Accuri C6 flow cytometry system (BD Biosciences, San Jose, CA 95131, USA). Data analyses were performed using FlowJo software v8.8 (Treestar Inc. Ashland, OR 97520, USA).
(§4) Background levels were determined using the respective secondary antibodies (anti-mFc-FITC for the subclones, or anti-myc-PE for the VUN100 molecules) with CHO cells and CHO-US28 cells. Given that US28 is expressed on the cell surface, the cells were non-permeabilised for these experiments.

[2] = biological target: T1, HCMV US28 (strain DB) on CHO-US28-A1 cells (Human cytomegalovirus, UniProt P69332, D170N/D19A); experiment: FACS surface binding to CHO-US28-A1 cells
T1 construct: expressed in transfected cells; host or cells: CHO-K1 (vector pCDH-EF1a-MCS)
Description: Plasmid construction was performed to create a US28-overexpressing cell line. The US28 sequence, identical to HCMV DB strain (Acc. Number: KT959235; SEQ ID No. 5 of this application), fused to a 6His tag at its C terminal part, was inserted into the pCDH-EF1a-MCS vector (Creative Biolabs, Shirley, NY 11967, USA). The plasmid construct was transfected to CHO-K1 cell line. The cells were collected 48 hours after transfection. The cell line was named as CHO-US28-A1-6His and its protein sequence (SEQ ID NO: 47) is the following:
as §1
The primary antibodies used were I) 13-5G6-1D3 (50 μg/ml) as a positive control; II) Monovalent and Bivalent VUN100 ScFvs 1:1 (50 μg/ml); III) test antibodies for the specified subclones (1:5).
The primary antibodies used were I) 13-5G6-1D3 1:50 to 50 μg/ml; and II) Commercial US28 polyclonal antibody (50 μg/ml), III) Monovalent and Bivalent VUN100 ScFvs (50 μg/ml) and for certain experiments, the appropriate isotype controls were included.
as §2, §3, §4

[3] = system: human heart muscle tissue; experiment: IHC on human cardiac tissue samples (TMA with malignant pheochromocytoma positive control)
Description: FIG. 19. A. Flowcytometry analysis with the 28-13-5G6-1D3-PE antibody were conducted on various human primary cells to exclude general off-target binding to the surface of these cell types. The following cell lines were studied: human primary adrenal cortical cells, human primary kidney epithelial cells, human primary cardiac microvascular endothelial cells, human primary liver epithelial cells and human primary vein smooth muscle cells. […] B. Original human primary cardiac cells were not available, and human cardiac tissue samples were therefore studied for staining of 13-5G6-1D3 by immunohistochemistry. […] If there were HCMV infections present in the human heart, they were always of productive infection type. […] The positive 13-5G6-1D3 and HCMV ISH results are marked with arrows in the figure. A colour version of FIG. 19 is also provided.

[4] = system: human astrocytoma and glioblastoma tissues; experiment: IHC in human brain cancer cohort (astrocytoma grade 1-3, glioblastoma grade 4, NAT); design: key to IHC staining grade: stained negative (0); positive cytoplasmic staining (1+); moderately positive cytoplasmic staining (2+)
Text: FIG. 17. Human glioblastoma tissues were studied with the US28-13-5G6-1D3 rAb and MAB810R antibodies by using IHC and with ISH analysis for HCMV DNA. […] The staining was present in several cells in each positive sample which was different from the breast cancer samples. However, the staining of the glia cells was weaker than for the US28-13-5G6-1D3 rAb. C. The brain tissue NAT is negative for 13-5G6-1D3 staining. […] The arrows indicate these signals. E. The staining of the same Gliobastoma grade IV sample is negative for the IgG antibody. F. The ISH analysis is negative for the same brain tissue NAT sample. The positive glia cells are indicated with arrows in the non-colour version of these figures. A colour version of FIG. 17 is provided on the page after the non-colour version.
FIG. 18. US28-13-5G6-1D3 staining of the human brain cancer cohort containing human astrocytoma grade 1-3 and glioblastoma grade 4 and NAT tissues. All the astrocytoma grade 1 (n=4) stained negative (0). Of the grade 2-3 astrocytomas, 6 stained negative (0), 37 had positive cytoplasmic staining (1+), and 2 had moderately positive cytoplasmic staining (2+). […] The ISH analysis confirmed presence of nuclear HCMV DNA in tumor cells of all tumor samples. Only 3 of 10 NAT samples were HCMV DNA positive.

B1: 7B1F3: mouse IgG1 kappa antibody against US28 ECD1 Peptide-N; VH SEQ ID NO: 211, VL SEQ ID NO: 213 (antibody, V domains shown)
VH: EVQLQQSGAELAKPGASVKMSCKASGYTFTNYWMHWVKQRPGQGLEWIGYVNPRTGYTEYNQKFKDKATLTADKSSRTAYMQLSSLTSEDSAVYSCARILNGTGFAYWGQGTLVTVSA
VL: DIVLTQSPSSLTVSVGEKFTMSCKSSQSLLYSSNQKNYLAWYQQKPGQSPKLLIYWASTRESGVPDRFTGSGSGTDFTLAISSVKPEDLAIYYCQQYYSFPLTFGAGTKLEIK
modifications: Mature form of VH sequence of 7B1F3, without the leader sequence; Mature form of VL sequence of 7B1F3, without the leader sequence
Percentage of binding to CHO cells ([1]; Table 7B, (1:5), secondary antibody background removed): 0.67%

B2: 13-5G6-1D3 rAb: recombinant antibody product of US28-13-5G6-1D3 produced in HEK293-F cells (antibody)
heavy: EVKLVESGGGLVQPGGSLRLACATSGFTFTDYYMSWVRQPPGKALEWLGFIRSKANGYTTEYSASVKGRFTISRDNSQSILYLQMNTLRSEDSATYYCARDERRTAWLAYWGQGTLVTVSAAKTTPPSVYPLAPGSAAQTNSMVTLGCLVKGYFPEPVTVTWNSGSLSSGVHTFPAVLQSDLYTLSSSVTVPSSTWPSETVTCNVAHPASSTKVDKKIVPRDCGCKPCICTVPEVSSVFIFPPKPKDVLTITLTPKVTCVVVDISKDDPEVQFSWFVDDVEVHTAQTQPREEQFNSTFRSVSELPIMHQDWLNGKEFKCRVNSAAFPAPIEKTISKTKGRPKAPQVYTIPPPKEQMAKDKVSLTCMITDFFPEDITVEWQWNGQPAENYKNTQPIMDTDGSYFIYSKLNVQKSNWEAGNTFTCSVLHEGLHNHHTEKSLSHSPGK
light: DVLMTQTPLSLPVSLGDQASISCRSSQSIVHSNGNTYLDWYLQKPGQSPKLLIYKVSNRFSGVPDRFSGSGSGTDFTLKISRVEAEDLGVYYCFQGSHVPTWTFGGGTKLEIKRADAAPTVSIFPPSSEQLTSGGASVVCFLNNFYPKDINVKWKIDGSERQNGVLNSWTDQDSKDSTYSMSSTLTLTKDEYERHNSYTCEATHKTSTSPIVKSFNRNEC
Binding Specificity (ratio of surface binding) ([2]; CHO-US28-A1 cells compared with US28 negative control CHO cells): 21.5* | higher surface binding to US28 expressing CHO cells than control CHO cells ([2]; FIG. 7): > 21 times | control CHO cells bound ([1]; 1:10 dilution (w/v), blank and secondary Ab controls removed, FIG. 7): 0.77%

B3: US28-13-5G6-1D3: monoclonal antibody against ECD3 of HCMV US28; VH SEQ ID NO: 12, VL SEQ ID NO: 18; rAb is the recombinant product (antibody, V domains shown)
VH: EVKLVESGGGLVQPGGSLRLACATSGFTFTDYYMSWVRQPPGKALEWLGFIRSKANGYTTEYSASVKGRFTISRDNSQSILYLQMNTLRSEDSATYYCARDERRTAWLAYWGQGTLVTVSA
VL: DVLMTQTPLSLPVSLGDQASISCRSSQSIVHSNGNTYLDWYLQKPGQSPKLLIYKVSNRFSGVPDRFSGSGSGTDFTLKISRVEAEDLGVYYCFQGSHVPTWTFGGGTKLEIK
modifications: Mature form of VH sequence of 1D3, without the leader sequence; Mature form of VL sequence of 1D3, without the leader sequence
notes: monoclonal antibody against ECD3 of HCMV US28; rAb is the recombinant product
IHC staining of heart muscle tissue [3]: negative | IHC staining grade ([4]; all astrocytoma grade 1 (n=4)): 0 | number of tumors stained negative (0) ([4]; grade 2-3 astrocytomas): 6 | number of tumors with moderately positive cytoplasmic staining (2+) ([4]; grade 2-3 astrocytomas): 2 | number of tumors with positive cytoplasmic staining (1+) ([4]; grade 2-3 astrocytomas): 37 | binding to CHO-US28-A1 cells relative to any of the other 9 clones ([2]; 1:50 w/v Ab dilution): 8-10 fold | CHO-US28-A1 cells bound/stained ([2]; comparison with commercial US28 Ab, FIG. 11A): more than 50%

B4: 13-5G6-1D3: mouse monoclonal IgG1 kappa antibody against US28 ECD3; VH SEQ ID NO: 12, VL SEQ ID NO: 18 (antibody, V domains shown)
VH: B3 VH
VL: B3 VL
modifications: Mature form of VH sequence of 1D3, without the leader sequence; Mature form of VL sequence of 1D3, without the leader sequence
IHC staining of malignant pheochromocytoma ([3]; positive control on the same TMA plate): positive staining | IHC staining of brain tissue NAT [4]: negative | background binding, % of CHO negative control population ([1]; FIG. 21A): 0.88%
